Measured values published in publication PMC3623455.

Assays:
purified protein [1] = substrate: O=C(CO)[C@H](O)[C@@H](O)CO; assay: purified protein; conditions: 50 mM Tris-HCl pH 7.0, 0.5 mM NADPH, sugar reduction
purified protein [2] = substrate: OC[C@@H](O)[C@H](O)[C@@H](O)CO; assay: purified protein; conditions: 100 mM Tris-HCl pH 8.0, 1 mM NADP+, polyol oxidation

B1: LXR3 (Trichoderma reesei QM6a) (protein)
chain: KNGAFPHDNAAVPNVERVLPLFSLKGRTAIVSGAGAGIGLAVAQAFAEAGANVAIWYNSNKQAVTSAEDIAKTYGVKCKAYQVNVTSAEAVDKAITEIIKEFNGRLDVFVANSGITWTEGAFIDGSVESARNVMSVNVDGVMWCAKSAGAHFRRQKEEGTTIDGKPLDNFIAGSFIATASMSGSIVNVPQLQAVYNSSKAAVIHFCKSLAVEWTGFARVNTVSPGYIITEISNFVPPETKTLWKDKIVMGREGRVGELKGAYLYLASDASSYTTGLDMIVDGGYSLP
Q: B1 was tested. Which kcat (purified protein [1]) did it give?
A: 11.4 s⁻¹

Q: What about the kcat (purified protein [2]) of the same protein?
A: 1 s⁻¹
